Bounds are passed on as bounds.

Holding throughout (test): cell-based or functional assay
Assay [1] deals with VSV (control pseudotype virus).
In assay [2] the target is E1E2 Env of HCV isolate J6 (genotype 2a) on HCVpp (hepatitis C virus genotype 2a, isolate J6) (UniProt P26660).
For assay [3], the target named is E1E2 Env of HCV isolate UKN2B1.1 (genotype 2b) on HCVpp (hepatitis C virus genotype 2b, isolate UKN2B1.1).
Assay [4] addresses E1E2 Env of HCV isolate OH8 (genotype 1b) on HCVpp (hepatitis C virus genotype 1b, isolate OH8).
The target in assay [5] is E1E2 Env of HCV isolate UKN4.21.16 (genotype 4) on HCVpp (hepatitis C virus genotype 4, isolate UKN4.21.16).
The target in assay [6] is E1E2 Env of HCV isolate UKN5.15.7 (genotype 5) on HCVpp (hepatitis C virus genotype 5, isolate UKN5.15.7).
The target in assay [7] is E1E2 Env of HCV isolate UKN1B12.16 (genotype 1b) on HCVpp (hepatitis C virus genotype 1b, isolate UKN1B12.16).
The target of assay [8] is E1E2 Env of HCV isolate UKN2A1.2 (genotype 2a) on HCVpp (hepatitis C virus genotype 2a, isolate UKN2A1.2).
In assay [9] the target is E1E2 Env of HCV isolate H (genotype 1a) on HCVpp (hepatitis C virus genotype 1a, isolate H).

Chain of MAb AR3C (antibody) (VH): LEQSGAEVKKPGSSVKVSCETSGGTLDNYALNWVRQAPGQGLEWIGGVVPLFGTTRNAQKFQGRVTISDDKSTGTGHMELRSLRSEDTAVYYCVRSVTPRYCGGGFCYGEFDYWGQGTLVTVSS
Chain of MAb AR3C (antibody) (VL): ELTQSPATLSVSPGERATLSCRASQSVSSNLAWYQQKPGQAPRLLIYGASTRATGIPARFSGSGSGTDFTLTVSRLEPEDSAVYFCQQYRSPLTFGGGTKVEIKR
Chain of MAb AR2A (antibody) (VH): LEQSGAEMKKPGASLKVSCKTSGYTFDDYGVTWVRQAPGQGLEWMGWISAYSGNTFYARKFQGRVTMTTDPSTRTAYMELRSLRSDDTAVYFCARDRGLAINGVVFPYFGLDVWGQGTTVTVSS
Chain of MAb AR2A (antibody) (VL): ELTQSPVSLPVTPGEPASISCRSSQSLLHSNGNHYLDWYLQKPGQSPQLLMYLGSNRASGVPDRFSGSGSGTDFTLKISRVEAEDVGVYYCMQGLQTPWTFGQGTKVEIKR
Chain of MAb AR3B (antibody) (VH): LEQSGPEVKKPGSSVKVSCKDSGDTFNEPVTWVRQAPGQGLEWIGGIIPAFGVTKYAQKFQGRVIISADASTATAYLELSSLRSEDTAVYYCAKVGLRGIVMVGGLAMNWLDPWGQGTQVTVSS
Chain of MAb AR3B (antibody) (VL): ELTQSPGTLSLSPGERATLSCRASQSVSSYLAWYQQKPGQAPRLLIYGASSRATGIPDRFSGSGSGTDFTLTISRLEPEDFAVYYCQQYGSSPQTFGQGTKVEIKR
Chain of E1E2 Env of HCV isolate J6 (genotype 2a) on HCVpp (hepatitis C virus genotype 2a, isolate J6) (P26660 192-750 limits assumed): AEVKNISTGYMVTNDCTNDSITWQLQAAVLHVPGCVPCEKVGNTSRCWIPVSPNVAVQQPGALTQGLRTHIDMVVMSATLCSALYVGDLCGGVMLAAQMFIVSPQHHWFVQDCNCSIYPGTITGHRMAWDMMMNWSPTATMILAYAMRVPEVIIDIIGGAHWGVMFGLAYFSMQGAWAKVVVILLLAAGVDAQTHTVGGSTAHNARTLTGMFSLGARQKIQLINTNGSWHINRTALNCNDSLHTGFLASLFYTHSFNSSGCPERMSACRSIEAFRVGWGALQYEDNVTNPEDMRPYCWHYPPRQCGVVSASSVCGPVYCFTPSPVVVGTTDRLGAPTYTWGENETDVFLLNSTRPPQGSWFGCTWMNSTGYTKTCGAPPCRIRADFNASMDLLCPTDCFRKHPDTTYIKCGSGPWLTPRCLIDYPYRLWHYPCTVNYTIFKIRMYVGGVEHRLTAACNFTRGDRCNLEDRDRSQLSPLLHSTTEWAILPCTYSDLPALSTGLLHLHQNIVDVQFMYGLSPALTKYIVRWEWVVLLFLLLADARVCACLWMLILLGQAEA
Chain of MAb AR1B (antibody) (VH): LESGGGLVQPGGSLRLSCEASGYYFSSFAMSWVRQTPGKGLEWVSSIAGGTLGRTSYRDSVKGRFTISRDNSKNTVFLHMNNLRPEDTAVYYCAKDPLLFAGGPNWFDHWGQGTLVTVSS
Chain of MAb AR1B (antibody) (VL): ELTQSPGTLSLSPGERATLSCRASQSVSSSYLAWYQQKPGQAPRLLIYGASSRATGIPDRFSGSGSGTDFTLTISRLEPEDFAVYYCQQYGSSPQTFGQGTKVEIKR

For the substance MAb AR1A (antibody), the Neutralizing activity (IC50), control pseudotype in [1] is greater than 50 µg/mL. For the same substance, the Neutralizing activity (IC50), HCVpp in assay [2], in assay [3], in assay [4], in assay [5], in assay [6] and in assay [7] was greater than 50 µg/mL each time. For the same substance, the Neutralizing activity (IC50), HCVpp in assay [8] is greater than 50 µg/mL.
In turn, MAb AR1B (antibody) registered a Neutralizing activity (IC50), control pseudotype in assay [1] greater than 50 µg/mL. For the same substance, the Neutralizing activity (IC50), HCVpp in [2], in assay [3], in [4], in assay [5], in assay [6] and in [7] was greater than 50 µg/mL in each case. In assay [8], this substance returned a Neutralizing activity (IC50), HCVpp greater than 50 µg/mL.
In assay [1], MAb AR2A (antibody) came in with a Neutralizing activity (IC50), control pseudotype greater than 50 µg/mL. The Neutralizing activity (IC50), HCVpp in assay [2] was greater than 50 µg/mL; in assay [3] it was 10 µg/mL; in assay [4], greater than 50 µg/mL; in assay [5], 1 µg/mL; in assay [6] it was 10 µg/mL; in [7] it was greater than 50 µg/mL. Further, the Neutralizing activity (IC50), HCVpp in assay [9] and in assay [8] was 5 µg/mL in each case.
For the substance MAb AR3B (antibody), the Neutralizing activity (IC50), control pseudotype in assay [1] is greater than 50 µg/mL. The Neutralizing activity (IC50), HCVpp in [2] came to 10 µg/mL; in [3], 10 µg/mL; in assay [4] it was 5 µg/mL; in assay [5] it was 1 µg/mL; in assay [6], 1 µg/mL; in [7], 1 µg/mL. Moreover, the Neutralizing activity (IC50), HCVpp in assay [9] stood at 1 µg/mL; in [8], 5 µg/mL.
MAb AR3C (antibody) gave a Neutralizing activity (IC50), control pseudotype in assay [1] greater than 50 µg/mL. The Neutralizing activity (IC50), HCVpp in [2] came to 10 µg/mL; in assay [3], 10 µg/mL; in assay [4] it was 5 µg/mL; in assay [5], 1 µg/mL; in [6], 1 µg/mL; in assay [7], 1 µg/mL. Moreover, the Neutralizing activity (IC50), HCVpp came to 1 µg/mL in assay [9] and 10 µg/mL in [8].
MAb AR3D (antibody) displayed a Neutralizing activity (IC50), control pseudotype in assay [1] greater than 50 µg/mL. The Neutralizing activity (IC50), HCVpp in assay [2] is 50 µg/mL; in [3], 25 µg/mL; in assay [4], 5 µg/mL; in [5], 1 µg/mL; in assay [6] it was 10 µg/mL; in assay [7], 1 µg/mL. The Neutralizing activity (IC50), HCVpp in [9] turned out to be 1 µg/mL; in [8], 25 µg/mL.

The values above are taken from US20100104555A1.
